Measurements taken from US20180030137A1 (ADURO BIOTECH HOLDINGS EUROPE B V, published 2018).
Where “and” joins values, the source holds several entries; their conditions need not be identical. Identical values can stand only once.

Experiments:
[1] = target: T1, Human PD-1 (Swiss-Prot entry Q15116), full length, on cells (human, UniProt Q15116 21-288); test: cell-based or functional assay
[2] = target: T2, Macaca fascicularis PD-1 (Swiss-Prot entry B0LAJ3), full length, on cells (Macaca fascicularis, UniProt Q15116 25-288 (human entry)); test: CELISA on CHO-K1 cells transiently transfected with cyno PD-1
T2 construct: Full length open reading frame transiently expressed on CHO-K1 cells; also endogenous PD-1 on CD3/CD28-stimulated cynomolgus PBMCs; No signal peptide limits are stated for the cynomolgus entry; also called cyno PD-1; cynomolgus PD-1
T2 chain: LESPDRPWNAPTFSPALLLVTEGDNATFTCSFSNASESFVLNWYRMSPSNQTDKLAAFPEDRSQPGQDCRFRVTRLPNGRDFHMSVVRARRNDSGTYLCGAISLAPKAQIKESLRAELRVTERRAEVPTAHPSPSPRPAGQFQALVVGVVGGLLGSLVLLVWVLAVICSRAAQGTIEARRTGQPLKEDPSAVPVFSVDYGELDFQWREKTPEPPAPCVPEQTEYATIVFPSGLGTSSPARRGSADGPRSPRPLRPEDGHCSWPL
Description: Parental CHO-K1 or CHO-K1.cynoPD1 cells were seeded in tissue culture plates and incubated for 48 hours at 37° C. Subsequently culture medium was removed and cells were incubated for 1 hour with purified hPD-1 antibodies (10 μg/ml (=66 nM) and dilutions thereof) at 37° C. Next, cells were washed with PBST and incubated for 1 hour at 37° C. with Goat-anti-human (Jackson Immuno Research). Subsequently, cells were washed 3 times with PBST and anti-hPD1 immunoreactivity was visualized with 100 μL TMB Stabilized Chromagen (Invitrogen). Reactions were stopped with 100 μL 0.5 M H2SO4 and absorbances were read at 450 and 610 nm.

[3] = target: T1, Human PD-1 (Swiss-Prot entry Q15116), …; test: flow cytometry, Binding (%), on anti-CD3/anti-CD28 stimulated human CD3+ T cells; donor #1 or #3, same marker in the legend
Description: (§1) Cells were stored in liquid nitrogen and retrieved from the freezer on the day of the experiment. Since endogenous expression of hPD-1 on resting T cells is low, the thawed CD3+ T cells were stimulated with αCD3/αCD28 coated beads (Gibco) for 48 hours.

[4] = target: T1, Human PD-1 (Swiss-Prot entry Q15116), …; test: flow cytometry, Binding (%), on anti-CD3/anti-CD28 stimulated human CD3+ T cells, donor #2
Description: as §1

[5] = target: T1, Human PD-1 (Swiss-Prot entry Q15116), …; test: flow cytometry on CD3/CD28-stimulated human CD3+ T cells, three donors; CD3/CD28 stimulated human T cells, three donors
Description: as §1

[6] = target: T1, Human PD-1 (Swiss-Prot entry Q15116), …; test: CELISA on CHO-K1.hPDCD1 cells
Description: To further characterize these mutant hPD-1 antibodies they were tested for binding to hPD-1 in CELISA format using CHO-K1 cells (American Type Culture Collection, Manassas, Va.), stably transfected with cDNA encoding the full length open reading frame of hPDCD1 (hPD-1), subcloned into the pCI-neo vector (Promega). Parental CHO-K1 or CHO-K1.hPDCD1 cells were seeded in culture medium (DMEM-F12 (Gibco) with 10% Fetal Bovine Serum (Hyclone) and Pen/Strep (Gibco)) in tissue culture plates and incubated for 48 hours at 37° C. Subsequently culture medium was removed and cells were incubated for 1 hour at 37° C. with the mutant hPD-1 antibodies (10 μg/ml (=66 nM) and dilutions thereof). Next, cells were washed with Phosphate-Buffered Saline/0.05% Tween (PBST) and incubated for 1 hour at 37° C. with Goat-anti-human IgG-HRP (Southern Biotech). Subsequently, cells were washed 3 times with PBST and anti-hPD1 immunoreactivity was visualized with 100 al TMB Stabilized Chromagen (Invitrogen). Reactions were stopped with 100 al 0.5 M H2SO4 and absorbances were read at 450 and 610 nm. […] Blockade of hPD-L1 binding by the mutant hPD-1 antibodies was tested in CELISA format. Parental CHO-K1 or CHO-K1.hPDCD1 cells were seeded in tissue culture plates and incubated for 72 hours at 37° C. in culture medium. Subsequently culture medium was removed and cells were incubated for 1 hour with the mutant hPD-1 antibodies (10 μg/ml (=66 nM) and dilutions thereof) at 37° C. […] Cells were then washed three times with PBST followed by addition of Streptavidin-HRP conjugate on the cells, which was incubated for 1 hour at 37° C. […] Reactions were stopped with 100 al 0.5 M H2SO4 and absorbances were read at 450 and 610 nm. Calculated IC50 values in Table 12 for the blockade of hPD-L1 represent the concentration at which half of the inhibition is observed.

[7] = target: T2, Macaca fascicularis PD-1 (Swiss-Prot …); test: flow cytometry, Binding (%), on anti-CD3/anti-CD28 stimulated cynomolgus PBMCs; animal #1 or #3, same marker in the legend
Description: To this end Macacaca fascicularis (cynomolgus) blood was diluted 1:1 with PBS and added to 50 ml tubes containing 13 ml Lymphoprep 95%/PBS 5%. Cells were centrifuged for 30′ at 450 g and 20° C. without brake. Next, plasma was removed by aspiration and PBMCs were recovered from the plasma/Ficoll interface. PBMCs were washed twice times in PBS. Cells were frozen in liquid nitrogen and retrieved from the freezer on the day of the experiment. Since endogenous expression of PD-1 on resting T cells is low thus the thawed PBMCs were stimulated with αCD3/αCD28 coated beads (Gibco) for 48 hours.

[8] = target: T1, Human PD-1 (Swiss-Prot entry Q15116), …; test: CELISA on CHO-K1.hPDCD1 cells; remark: listed apart in the source
Description: To further characterize these mutant hPD-1 antibodies they were tested for binding to hPD-1 in CELISA format using CHO-K1 cells (American Type Culture Collection, Manassas, Va.), stably transfected with cDNA encoding the full length open reading frame of hPDCD1 (hPD-1), subcloned into the pCI-neo vector (Promega). Parental CHO-K1 or CHO-K1.hPDCD1 cells were seeded in culture medium (DMEM-F12 (Gibco) with 10% Fetal Bovine Serum (Hyclone) and Pen/Strep (Gibco)) in tissue culture plates and incubated for 48 hours at 37° C. Subsequently culture medium was removed and cells were incubated for 1 hour at 37° C. with the mutant hPD-1 antibodies (10 μg/ml (=66 nM) and dilutions thereof). Next, cells were washed with Phosphate-Buffered Saline/0.05% Tween (PBST) and incubated for 1 hour at 37° C. with Goat-anti-human IgG-HRP (Southern Biotech). Subsequently, cells were washed 3 times with PBST and anti-hPD1 immunoreactivity was visualized with 100 al TMB Stabilized Chromagen (Invitrogen). Reactions were stopped with 100 al 0.5 M H2SO4 and absorbances were read at 450 and 610 nm. […] Blockade of hPD-L1 binding by the mutant hPD-1 antibodies was tested in CELISA format. […] Reactions were stopped with 100 al 0.5 M H2SO4 and absorbances were read at 450 and 610 nm. Calculated IC50 values in Table 12 for the blockade of hPD-L1 represent the concentration at which half of the inhibition is observed.

T1 sequence (Q15116 21-288, one chain of several): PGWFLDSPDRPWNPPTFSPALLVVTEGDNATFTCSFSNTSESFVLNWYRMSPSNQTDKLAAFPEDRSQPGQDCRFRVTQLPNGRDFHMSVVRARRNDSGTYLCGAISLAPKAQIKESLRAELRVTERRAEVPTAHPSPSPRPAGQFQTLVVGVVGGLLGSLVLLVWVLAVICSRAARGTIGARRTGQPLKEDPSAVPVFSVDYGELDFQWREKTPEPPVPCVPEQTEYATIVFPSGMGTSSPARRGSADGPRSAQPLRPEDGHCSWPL

B1: hPD1.29H5L4 (antibody, V domains shown)
VH: EVQLVQSGAEVKKPGASVKVSCKASGYIFTTYYIHWVKQAPGKGLEWIGWIFPGDVSTQYNEKFQDKATITVDKSASTAYMQLSSLRSEDTAVYYCTREAYDYAVYWGQGTLVTVSS
VL: DIQMTQAPSSLSASVGDRVTITCKASQNVDTNVAWFQQKPGKAPKSLIFSASYRYSGVPSRFSGSGSGTDFTLTISSLQPEDFATYYCQQYNNYPFTFGGGTKLEIK
notes: Expressed as human IgG4, kappa with the stabilizing S241P (Kabat) hinge mutation in HEK293 cells; also called humanized PD-1 antibody hPD1.29H5L4
For B1, the “IC50; NFAT-luciferase signal (RLU) of Jurkat cells expressing human PD-1, with CHO cells expressing hPD-L1” value [1] was 4.39 nM, the EC50 [2] was 0.45 nM and the “EC50 (read off the curve)” value [3] was ~0.2 nM and ~0.3 nM. The “EC50 (read off the curve)” value [4] was ~0.2 nM, the EC50 [5] was 0.27 nM and the EC50 [6] was 0.3 nM. The “EC50 (read off the curve)” value [7] was ~1 nM and ~2 nM and the EC50 [8] was 0.13 nM.
